Measurements: the supplement of paper PMC10567573
± gives the standard deviation.

Assay: protein stability index of a GFP-peptide fusion (GPS, HEK-293T) (PSI 1-6); higher = more stable
[1] = treatment: DMSO, c terminus: a fixed tail appended
[2] = treatment: MLN4924 1 uM, 8 h, c terminus: a fixed tail appended
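Also: 24-mer peptide tiles fused after GFP, lentivirally expressed, FACS-sorted into six equal bins by GFP/DsRed ratio, decoded by Illumina sequencing, PSI is the read-weighted mean bin number.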

Sequence | protein stability index [1] | protein stability index [2] | protein stability index (treatment: DMSO, c terminus: native) | protein stability index (treatment: MLN4924 1 uM, 8 h, c terminus: native)
IDQWKNKIWPEIKVPRPDALDNES [RETREG3] | 4.14 ± 0.24 | 4.3 ± 0.27 | – | –
IDRQKCMAHRTRYPTILQLAGYQ [TEKT4] | – | – | 2.26 ± 0.37 | 2.14 ± 0.35
IEKVSVSTQTKKLSASSPRMLHRS [ZMYND11] | 3.96 ± 0.23 | 4.03 ± 0.34 | – | –
IEQQQIRNALENIRKEMKLLEQAG [CRYL1] | 3.84 ± 0.17 | 4.27 ± 0.62 | – | –
IFATKPHVLPAVLAEVAPVVTTEH [PYCR3] | 3.33 ± 0.38 | 3.4 ± 0.21 | – | –
IFSFGQLPLALVTWVPMFLSTLLA [SOAT2] | 2.9 ± 0.43 | 2.72 ± 0.56 | – | –
IGPLETMHLNAEGMLSYCDRYSEG [CRYL1] | 3.47 ± 0.48 | 3.27 ± 0.28 | – | –
IHGGVVNIHENKRTGSLFKIWLVV [KLHDC10] | 2.85 ± 0.47 | 2.45 ± 0.62 | – | –
IIELRRTVNALEIELQAQHSMRNS [KRT36] | 2.38 ± 0.26 | 2.32 ± 0.33 | – | –
IKIIKNKKAFLNQAQIELRLLELM [DYRK1B] | 2.75 ± 0.47 | 2.6 ± 0.43 | – | –
IKKLIYVHLVIWLLLVAKMSVGHL [JAGN1] | 3.31 ± 0.35 | 3.13 ± 0.24 | – | –
IKLLQSSGADFHKKDKCGRTPLHY [ANKRD44] | 2.42 ± 0.2 | 2.6 ± 0.38 | – | –
IKVTSATSVNLGILTADLYSLFVG [SLC35F2] | 3.07 ± 0.36 | 2.92 ± 0.42 | – | –
ILAVSFAPLVQPSKNDNGKPDSVG [PCMTD1] | 2.98 ± 0.27 | 3.14 ± 0.35 | – | –
ILIELAMRGRIYLEPPTMRKKRLL [GOLPH3L] | 2.66 ± 0.25 | 2.74 ± 0.66 | – | –
ILIIRFEMPYNIWCDGCKNHIGMG [YJU2B] | 3.24 ± 0.36 | 2.96 ± 0.71 | – | –
ILLEYCSRRSMAHILKARKVLTEP [PLK2] | 2.48 ± 0.5 | 2.18 ± 0.33 | – | –
ILPKQSRKSMLDAGPDSWGSDAEQ [LCOR] | 4.51 ± 0.15 | 4.55 ± 0.21 | – | –
ILVYDIANRWSFDGIDRWIKEIDE [RAB40B] | 2.11 ± 0.57 | 1.93 ± 0.31 | – | –
INGLRRVLDELTLARADLEMQIEN [KRT17] | 3.1 ± 0.45 | 2.82 ± 0.38 | – | –
IPSTPEEVSADDETPNPPQSAQIA [MAGEA10] | 5.42 ± 0.1 | 5.44 ± 0.16 | – | –
IQRIDENVLGAQLDVEAAHSEILK [STX5] | 4.15 ± 0.17 | 4.22 ± 0.25 | – | –

Sequence | protein stability index [1] | protein stability index [2] | protein stability index (treatment: DMSO, c terminus: native) | protein stability index (treatment: MLN4924 1 uM, 8 h, c terminus: native)
IQSGAWVCYQYPGYRGYQYILECD [CRYBA1] | 2.39 ± 0.38 | 2.58 ± 0.59 | – | –
IRRFLSAFHEPQVGLIQAAQQLLC [DFFB] | 2.18 ± 0.38 | 2.14 ± 0.17 | – | –
IRVQGREFRAHRAVLAASSPYFHD [ZBTB22] | 2.55 ± 0.21 | 2.41 ± 0.16 | – | –
ISHEEQKSVRLARELESREAELRR [CHCHD6] | 5 ± 0.3 | 5.14 ± 0.37 | – | –
ISLDVLQPSFPEILLESHMVMIRG [POMT2] | 2.34 ± 0.39 | 2.41 ± 0.71 | – | –
ISSIKEKYPSHSFIGEESVAAGEK [IMPA1] | 4.8 ± 0.13 | 4.81 ± 0.23 | – | –
ISVQNYKQVCKIAALHGLEETKKL [KLHL14] | 2.29 ± 0.24 | 2.31 ± 0.3 | – | –
IVRLHDSISEEGFHYLVFDLVTGG [CAMK2B] | 2.85 ± 0.66 | 2.65 ± 0.52 | – | –
IVTTVTTVQSRPRIDGKLDSPSRS [C2CD2L] | 3.4 ± 0.19 | 3.49 ± 0.27 | – | –
IYRDSYPRNPTVRWGYVAMKFAQV [SOAT1] | 2.79 ± 0.47 | 2.67 ± 0.53 | – | –
KAKHFKCHICHKKLYTGPGLAIHC [ZNF207] | 2.33 ± 0.23 | 2.62 ± 0.76 | – | –
KCILKTPGKINCLRNCKTYQARKP [RHOBTB3] | 2.98 ± 0.17 | 3.03 ± 0.26 | – | –
KCKPSLPAEAEGAAQELENQMKER [TMEM120A] | 5.42 ± 0.19 | 5.49 ± 0.2 | – | –
KCLSIMLAEWEANPLICPVCTKYN [RPAIN] | 2.8 ± 0.73 | 2.29 ± 0.19 | – | –
KDPRDPEESKEPKEEKQRRRCKPK [GNAS] | 5.37 ± 0.26 | 5.26 ± 0.3 | – | –
KDRRFAYGRSDVVVLCFSIANPNS [RHOBTB1] | 2.74 ± 0.54 | 2.34 ± 0.46 | – | –
KEAVTGSRLGQGIGPIHLNEIQCT [LOXL2] | 3.77 ± 0.61 | 3.93 ± 0.47 | – | –
KEPATMSWLEENVHEVLQAVDAGD [TCF25] | 5.05 ± 0.25 | 5.13 ± 0.17 | – | –
KETDPLTFNFISSLKAICTEIANC [PLD5] | 2 ± 0.27 | 2.05 ± 0.1 | – | –
KEVMLFGHGTRKRVPLGRLELLEE [RSAD1] | 3.6 ± 0.19 | 3.59 ± 0.28 | – | –
KEYAAKFIKKRRLSSSRRGVSREE [DAPK3] | 4.15 ± 0.15 | 4.379 ± 0.041 | – | –
KGAAAAAAASGAAGGGGGGAGAGA [INTS3] | 5.26 ± 0.42 | 5.3 ± 0.27 | – | –

Sequence | protein stability index [1] | protein stability index [2] | protein stability index (treatment: DMSO, c terminus: native) | protein stability index (treatment: MLN4924 1 uM, 8 h, c terminus: native)
KGALQKKPLYVAFSFMYILVGLTV [KCNK9] | 3.46 ± 0.47 | 2.85 ± 0.51 | – | –
KGAPASWWNHMHFQHHAKPNCFRK [FADS1] | 2.87 ± 0.18 | 3.01 ± 0.43 | – | –
KGGNLRDKLDGNELDLSLSDLNEV [LRRC59] | 4.86 ± 0.075 | 5.11 ± 0.17 | – | –
KGKDNKHPMYRRLVHSAVDVPTIQ [ZMYND11] | 3.71 ± 0.18 | 3.71 ± 0.28 | – | –
KHSNKKVMRTKSSEKAANDDHSVR [CPXM2] | 5.13 ± 0.29 | 5.2 ± 0.22 | – | –
KIDYCASSNHGCQHECVNTDDSYS [MATN2] | 4.37 ± 0.18 | 4.5 ± 0.18 | – | –
KKKPGTAMCVGCGSQIHDQFILRV [ISL2] | 2.36 ± 0.37 | 2.23 ± 0.29 | – | –
KKLRFHPKQLYFSARQGELQKVLL [EHMT1] | 3.28 ± 0.71 | 2.63 ± 0.45 | – | –
KLEPIKSRAPQLHLEYRFYKQLGS [CSNK1G1] | 2.06 ± 0.76 | 2.27 ± 0.21 | – | –
KLFDVPSLNGVYPRMNEVYTRLGE [CEP70] | 2.65 ± 0.17 | 2.53 ± 0.34 | – | –
KLKLVALHKQVLMGPYNPDTCPEV [ACBD3] | 2.38 ± 0.28 | 2.72 ± 0.32 | – | –
KLNLPDYHKIIKNPMDMGTIKKRL [BRD3] | 2.41 ± 0.17 | 2.48 ± 0.42 | – | –
KMGGKDFSFRYQQELEEEIKELYE [ATL3] | 2.52 ± 0.51 | 2.87 ± 0.32 | – | –
KMNFSTLRNIQGLFAPLKLQMEFK [POMP] | 2.2 ± 0.36 | 2.02 ± 0.098 | – | –
KNGLPSPERSYVFNGDFVDRGKDS [PPEF2] | 4.7 ± 0.079 | 4.76 ± 0.18 | – | –
KNRYANVIAYDHSRVLLSAIEGIP [PTPRD] | 2.27 ± 0.82 | 2.26 ± 0.4 | – | –
KPVDIWACGVILYILLVGYPPFWD [CAMK2B] | 3.27 ± 0.31 | 3.03 ± 0.17 | – | –
KPVGRQACDLQPCPTEPPDDSCQD [ADAMTSL2] | 5.46 ± 0.34 | 5.76 ± 0.075 | – | –
KPYACDECAKAFSRSAILIQHRRT [ZNF396] | 2.12 ± 0.11 | 2.37 ± 0.19 | – | –
KRRQLEDERRQLQHLKSKALRERW [PALM] | 3.93 ± 0.3 | 4.22 ± 0.57 | – | –
KSFSMANGMNAVMMHGRSYSLASG [RAB40C] | 3.08 ± 0.26 | 3.03 ± 0.098 | – | –
